Key:
[1] = target: recombinant catalytically inactive MEK-1 (Lys343 to Met, polyhistidine fusion), P31938
[2] = target: recombinant MEK1 (substrate in Example 2)
[3] = target: recombinant JNKK (substrate in Example 2)

B1: MEKK1 (protein encoded by p-MEKK1, transiently expressed in COS cells) (protein)
chain: MVTAVPAVFSKLVTMLNASGSTHFTRMRRRLMAIADEVEIAEVIQLGVEDTVDGHQDSLQAVAPTSCLENSSLEHTVHREKTGKGLSATRLSASSEDISDRLAGVSVGLPSSTTTEQPKPAVQTKGRPHSQCLNSSPLSHAQLMFPAPSAPCSSAPSVPDISKHRPQAFVPCKIPSASPQTQRKFSLQFQRNCSEHRDSDQLSPVFTQSRPPPSSNIHRPKPSRPVPGSTSKLGDATKSSMTLDLGSASRCDDSFGGGGNSGNAVIPSDETVFTPVEDKCRLDVNTELNSSIEDLLEASMPSSDTTVTFKSEVAVLSPEKAENDDTYKDDVNHNQKCKEKMEAEEEEALAIAMAMSASQDALPIVPQLQVENGEDIIIIQQDTPETLPGHTKAKQPYREDAEWLKGQQIGLGAFSSCYQAQDVGTGTLMAVKQVTYVRNTSSEQEEVVEALREEIRMMGHLNHPNIIRMLGATCEKSNYNLFIEWMAGGSVAHLLSKYGAFKESVVINYTEQLLRGLSYLHENQIIHRDVKGANLLIDSTGQRLRIADFGAAARLASKGTGAGEFQGQLLGTIAFMAPEVLRGQQYGRSCDVWSVGCAIIEMACAKPPWNAEKHSNHLALIFKIASATTAPSIPSHLSPGLRDVAVRCLELQPQDRPPSRELLKHPVFRTTW
- phosphorylation of catalytically inactive MEK-1 by immunoprecipitated MEKK (γ-32P-ATP, SDS-PAGE, autoradiography) [1]: MEKK phosphorylated catalytically inactive MEK-1

B2: HA epitope-tagged MEKK3 (expressed in HEK293 cells) (protein)
chain: MGYPYDVPDYASDEQEALDSIMKDLVALQMSRRTRLSGYETMKNKDTGHPNRQSDVRIKFEHNGERRIIAFSRPVRYEDVEHKVTTVFGQPLDLHYMNNELSILLKNQDDLDKAIDILDRSSSMKSLRILLLSQDRNHTSSSPHSGVSRQVRIKPSQSAGDINTIYQAPEPRSRHLSVSSQNPGRSSPPPGYVPERQQHIARQGSYTSINSEGEFIPETSEQCMLDPLSSAENSLSGSCQSLDRSADSPSFRKSQMSRARSFPDNRKECSDRETQLYDKGVKGGTYPRRYHVSVHHKDYNDGRRTFPRIRRHQGNLFTLVPSSRSLSTNGENMGVAVQYLDPRGRLRSADSENALTVQERNVPTKSPSAPINWRRGKLLGQGAFGRVYLCYDVDTGRELASKQVQFDPDSPETSKEVSALECEIQLLKNLQHERIVQYYGCLRDRAEKILTIFMEYMPGGSVKDQLKAYGALTESVTRKYTRQILEGMSYLHSNMIVHRDIKGANILRDSAGNVKLGDFGASKRLQTICMSGTGIRSVTGTPYWMSPEVISGEGYGRKADVWSLGCTVVEMLTEKPPWAEYEAMAAIFKIATQPTNPQLPSHISEHGRDFLRRIFVEARQRPSAEELLTHHFAQLVY
- in vitro kinase assay of 12CA5 immunoprecipitates with a recombinant substrate and γ-32P-ATP [2]: it did not show measurable kinase activity toward MEK 1 or JNKK
- in vitro kinase assay of 12CA5 immunoprecipitates with a recombinant substrate and γ-32P-ATP [3]: it did not show measurable kinase activity toward MEK 1 or JNKK

B3: HA epitope-tagged MEKK2 (expressed in HEK293 cells) (protein)
chain: MGYPYDVPDYASDDQQALNSIMQDLAVLHKPVGQHYLYKKPGKQNLHHQKNRMMFESNLNIEEEKRILQVTRPVKLEDLRSKSKIAFGQSMDLHYTNNELVIPLTTQDDLDKAVELLDRSIHMKSLKILLVVNGSTQATNLEPSPSPEDLNNTPLGAERKKRLSVVGPPNRDRSSPPPGYIPDILHQIARNGSFTSINSEGEFIPESMDQMLDPLSLSSPENSGSGSCPSLDSPLDGESYPKSRMPRAQSYPDNHQEFTDYDNPIFEKFGKGGTYPRRYHVSYHHQEYNDGRKTFPRARRTQGTSFRSPVSFSPTDHSLSTSSGSSVFTPEYDDSRIRRRGSDIDNPTLTVTDISPPSRSPRAPTNWRLGKLLGQGAFGRVYLCYDVDTGRELAVKQVQFNPESPETSKEVNALECEIQLLKNLLHERIVQYYGCLRDPQEKTLSIFMELSPGGSIKDQLKAYGALTENVTRKYTRQILEGVHYLHSNMIVHRDIKGANILRDSTGNIKLGDFGASKRLQTICLSGTGMKSVTGTPYWMSPEVISGEGYGRKADIWSVACTVVEMLTEKPPWAEFEAMAAIFKIATQPTNPKLPPHVSDYTRDFLKRIFVEAKLRPSAEELLRHMFVHYH
- in vitro kinase assay of 12CA5 immunoprecipitates with a recombinant substrate and γ-32P-ATP [2]: MEKK 2 clearly phosphorylates both MEK 1 and JNKK
- in vitro kinase assay of 12CA5 immunoprecipitates with a recombinant substrate and γ-32P-ATP [3]: MEKK 2 clearly phosphorylates both MEK 1 and JNKK

— patent US20080201790
